According to article PMC3811995, “Zebavidin - An Avidin-Like Protein from Zebrafish” (PLoS ONE, 2013):
Several values for one entry are separate records, joined by “and”; a condition that tells them apart may be missing. Equal entries are not always repeated.

Key:
[1] = biological target: zebavidin (recombinant core, expressed in E. coli) (zebrafish (Danio rerio)); test: native MS; ESI FT-ICR, 10 µM zebavidin (monomer) in 10 mM ammonium acetate, pH 7, without biotin
[2] = biological target: zebavidin (recombinant core, expressed in E. coli) (zebrafish (Danio rerio)); test: native MS; ESI FT-ICR, 10 µM zebavidin in 500 mM ammonium acetate, in the absence and presence of 30 µM biotin
[3] = biological target: zebavidin (recombinant core, expressed in E. coli) (zebrafish (Danio rerio)); test: native MS; ESI FT-ICR, 10 µM zebavidin in 10 mM ammonium acetate, pH 7, with 30 µM biotin (3-fold molar excess)
[4] = biological target: zebavidin (recombinant core, expressed in E. coli) (zebrafish (Danio rerio)); test: SEC; Superdex200 10/300GL, 4 °C, 50 mM sodium phosphate, 2 mM EDTA, pH 7 with 0, 100 or 650 mM NaCl, with and without biotin
[5] = biological target: zebavidin (recombinant core, expressed in E. coli) (zebrafish (Danio rerio)); test: crystal structure; zebavidin in complex with biotin, 2.4 Å, space group P2(1)2(1)2, 16 monomers (four homotetramers) in the asymmetric unit
zebavidin [6] = biological target: T1, zebavidin (Danio rerio, UniProt E7F650); test: ITC ([…] °C); assay type: binding; set-up: gene avd; first 30 amino acids of the ORF replaced with OmpA signal peptide from Bordetella avium (secreted core)
T1 sequence (E7F650 31-154): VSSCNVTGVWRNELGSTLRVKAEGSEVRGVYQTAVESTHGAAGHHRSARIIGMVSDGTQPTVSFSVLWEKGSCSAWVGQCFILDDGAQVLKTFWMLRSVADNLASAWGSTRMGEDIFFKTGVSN

zebavidin [7] = biological target: T1, zebavidin; test: crystal structure at […] Å; direct and competitive ITC ([…] °C); [3H]biotin dissociation; native MS; DSC; assay type: binding; set-up: gene avd; first 30 amino acids of the ORF replaced with OmpA signal peptide from Bordetella avium (secreted core); homotetramer
zebavidin [8] = biological target: T1, zebavidin; test: fluorescence quenching titration ([…] °C); assay type: binding; set-up: gene avd; first 30 amino acids of the ORF replaced with OmpA signal peptide from Bordetella avium (secreted core)

Compound: zebavidin (recombinant core, expressed in E. coli) (natural protein)
- stoichiometry N [1]: 2 and 4
- stoichiometry N [2]: 4
- stoichiometry N [3]: 4
- stoichiometry N [4]: 4
- stoichiometry N [5]: 4

Compound: C[C@@H]1NC(=O)N[C@@H]1CCCCCC(=O)O [desthiobiotin]
- Kd (zebavidin [6]): 660/700 x10^-9 M

Compound: O=C(O)CCCC[C@@H]1SC[C@@H]2NC(=O)N[C@@H]21 [BTN, biotin]
- Kd (zebavidin [7]): 4.8/4.4 x10^-9 M

Compound: ArcDia BF560
- Kd (zebavidin [8]): 140 nM
